How the values were obtained:
THRa:RXRa = THRa:RXRa (Homo sapiens, UniProt P10827;P19793 full;full); assay: no ligand; PBM; 90 nM : 90 nM RXRa; PBS pH 7.4, 2% milk, 0.02% Triton X-100, 1 mM DTT, BSA, 0.4 mg/ml salmon testes DNA; conditions: tags: His kept;His cleaved; copies: 1;1; label: surface-attached array probe
PPARa:RXRa = PPARa:RXRa (Homo sapiens, UniProt Q07869;P19793 full;full); assay: no ligand; PBM; 270 nM : 90 nM RXRa; PBS pH 7.4, 2% milk, 0.02% Triton X-100, 1 mM DTT, BSA, 0.4 mg/ml salmon testes DNA; conditions: tags: GST kept;His cleaved; copies: 1;1; label: surface-attached array probe
How it was run: (§1)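 On custom Agilent 4×180K arrays, double-stranded probes with 34-nt variable regions carried direct-repeat seeds, single-nucleotide variants, half-site ablations or random human genomic background. Ligand-free nuclear receptor dimers were applied for 1 h, and binding was read with antibodies against each partner (one per run). Binding z-scores come from regression-normalized fluorescence, with the random background probes as reference.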

RARb:RXRa = RARb:RXRa (Homo sapiens, UniProt P10826;P19793 full;full); assay: as above; conditions: tags: His kept;His cleaved; copies: 1;1; label: surface-attached array probe
How it was run: as §1

RARg:RXRa = RARg:RXRa (Homo sapiens, UniProt P13631;P19793 full;full); assay: as above; conditions: tags: His kept;His cleaved; copies: 1;1; label: surface-attached array probe
How it was run: as §1

FXR:RXRa = FXR:RXRa (Homo sapiens, UniProt Q96RI1;P19793 full;full); assay: as above; conditions: tags: His kept;His cleaved; copies: 1;1; label: surface-attached array probe
How it was run: as §1

THRa:RXRa, sequence (P10827 other isoform, or with tags, fused parts or gaps, chain 1 of 2): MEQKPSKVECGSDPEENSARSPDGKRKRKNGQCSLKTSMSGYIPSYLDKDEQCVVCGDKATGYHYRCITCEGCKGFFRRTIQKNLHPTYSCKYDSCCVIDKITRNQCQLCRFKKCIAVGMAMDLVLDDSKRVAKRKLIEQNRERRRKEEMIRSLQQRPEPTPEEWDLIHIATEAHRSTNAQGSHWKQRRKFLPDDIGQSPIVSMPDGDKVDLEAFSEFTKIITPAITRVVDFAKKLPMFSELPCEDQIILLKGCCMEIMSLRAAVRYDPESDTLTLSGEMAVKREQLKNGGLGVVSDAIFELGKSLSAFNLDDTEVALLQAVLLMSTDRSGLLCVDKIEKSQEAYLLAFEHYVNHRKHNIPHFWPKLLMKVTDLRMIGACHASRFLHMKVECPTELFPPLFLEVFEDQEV
THRa:RXRa, sequence (P19793 whole entry, chain 2 of 2): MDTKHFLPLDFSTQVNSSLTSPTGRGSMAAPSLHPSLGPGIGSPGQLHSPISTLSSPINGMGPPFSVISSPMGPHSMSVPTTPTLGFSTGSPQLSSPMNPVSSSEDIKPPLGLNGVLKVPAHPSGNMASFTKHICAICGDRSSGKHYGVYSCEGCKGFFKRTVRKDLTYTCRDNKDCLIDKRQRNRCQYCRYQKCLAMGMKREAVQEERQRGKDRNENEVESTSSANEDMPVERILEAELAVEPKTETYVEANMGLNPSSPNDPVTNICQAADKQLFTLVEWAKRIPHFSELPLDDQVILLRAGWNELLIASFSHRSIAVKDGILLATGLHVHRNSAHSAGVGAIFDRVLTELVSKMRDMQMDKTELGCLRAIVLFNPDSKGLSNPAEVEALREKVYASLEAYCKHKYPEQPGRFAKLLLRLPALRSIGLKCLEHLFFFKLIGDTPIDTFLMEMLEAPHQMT
RARb:RXRa, sequence (P10826 whole entry, chain 1 of 2): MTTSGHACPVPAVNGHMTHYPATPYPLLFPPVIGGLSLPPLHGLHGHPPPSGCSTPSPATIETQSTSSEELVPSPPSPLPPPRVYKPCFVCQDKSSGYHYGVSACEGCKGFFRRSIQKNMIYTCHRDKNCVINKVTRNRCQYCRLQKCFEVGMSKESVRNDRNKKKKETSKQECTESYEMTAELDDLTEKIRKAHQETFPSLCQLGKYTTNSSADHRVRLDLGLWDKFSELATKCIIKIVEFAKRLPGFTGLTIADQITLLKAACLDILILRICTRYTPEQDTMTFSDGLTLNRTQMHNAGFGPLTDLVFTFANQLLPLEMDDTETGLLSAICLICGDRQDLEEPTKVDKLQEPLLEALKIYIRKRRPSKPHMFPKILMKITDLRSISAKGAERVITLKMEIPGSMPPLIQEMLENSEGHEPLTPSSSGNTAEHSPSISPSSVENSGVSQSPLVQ
RARb:RXRa, sequence (P19793 whole entry, chain 2 of 2): as the sequence (P19793 whole entry, chain 2 of 2) above
PPARa:RXRa, sequence (Q07869 whole entry, chain 1 of 2): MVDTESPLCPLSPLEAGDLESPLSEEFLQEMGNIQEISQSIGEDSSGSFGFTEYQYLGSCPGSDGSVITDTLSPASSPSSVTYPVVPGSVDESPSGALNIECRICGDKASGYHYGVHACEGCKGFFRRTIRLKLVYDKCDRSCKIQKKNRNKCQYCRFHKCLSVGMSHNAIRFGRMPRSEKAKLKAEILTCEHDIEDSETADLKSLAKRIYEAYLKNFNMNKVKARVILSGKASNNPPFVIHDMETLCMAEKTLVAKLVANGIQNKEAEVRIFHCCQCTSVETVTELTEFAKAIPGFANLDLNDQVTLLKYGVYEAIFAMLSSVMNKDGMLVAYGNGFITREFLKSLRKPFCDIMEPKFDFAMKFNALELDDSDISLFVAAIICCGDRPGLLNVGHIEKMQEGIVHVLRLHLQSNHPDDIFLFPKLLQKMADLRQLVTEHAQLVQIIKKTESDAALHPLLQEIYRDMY
PPARa:RXRa, sequence (P19793 whole entry, chain 2 of 2): as the sequence (P19793 whole entry, chain 2 of 2) above
FXR:RXRa, sequence (Q96RI1 whole entry, chain 1 of 2): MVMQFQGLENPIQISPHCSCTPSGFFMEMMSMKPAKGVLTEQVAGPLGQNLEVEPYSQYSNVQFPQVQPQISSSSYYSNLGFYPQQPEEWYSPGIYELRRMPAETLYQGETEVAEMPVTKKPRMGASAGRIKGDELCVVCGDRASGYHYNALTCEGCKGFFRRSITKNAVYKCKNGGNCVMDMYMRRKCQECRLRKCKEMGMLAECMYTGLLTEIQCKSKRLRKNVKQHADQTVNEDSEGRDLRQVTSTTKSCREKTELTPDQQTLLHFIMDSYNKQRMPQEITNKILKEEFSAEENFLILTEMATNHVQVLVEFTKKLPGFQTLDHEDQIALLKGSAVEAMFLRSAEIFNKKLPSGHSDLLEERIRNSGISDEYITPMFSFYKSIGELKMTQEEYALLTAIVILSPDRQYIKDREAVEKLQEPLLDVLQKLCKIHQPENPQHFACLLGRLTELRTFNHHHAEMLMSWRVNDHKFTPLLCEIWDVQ
FXR:RXRa, sequence (P19793 whole entry, chain 2 of 2): as the sequence (P19793 whole entry, chain 2 of 2) above
RARg:RXRa, sequence (P13631 whole entry, chain 1 of 2): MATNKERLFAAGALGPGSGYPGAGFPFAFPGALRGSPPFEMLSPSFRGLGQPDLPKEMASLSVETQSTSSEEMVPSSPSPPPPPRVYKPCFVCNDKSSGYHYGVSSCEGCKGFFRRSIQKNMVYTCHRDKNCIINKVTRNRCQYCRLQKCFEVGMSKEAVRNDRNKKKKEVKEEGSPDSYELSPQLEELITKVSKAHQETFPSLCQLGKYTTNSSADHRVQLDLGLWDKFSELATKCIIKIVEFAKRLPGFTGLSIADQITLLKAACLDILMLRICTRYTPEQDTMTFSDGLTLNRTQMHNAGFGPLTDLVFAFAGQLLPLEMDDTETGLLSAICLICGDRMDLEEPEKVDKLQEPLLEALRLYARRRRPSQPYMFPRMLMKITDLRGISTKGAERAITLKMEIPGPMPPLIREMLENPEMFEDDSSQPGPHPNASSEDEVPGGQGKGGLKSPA
RARg:RXRa, sequence (P19793 whole entry, chain 2 of 2): as the sequence (P19793 whole entry, chain 2 of 2) above

Row | Binder | binding signal (THRa:RXRa) | binding signal (PPARa:RXRa) | binding signal (RARb:RXRa) | binding signal (RARg:RXRa) | binding signal (FXR:RXRa)
1 | NRC3_random_hg19_436_o1 (dsDNA) DNA 1: GCATAGTTTCCAGCTTCATCCATGTCTCTGCAAAGAGCGATTGACAGCGTAGAATGAAGG DNA 2: CCTTCATTCTACGCTGTCAATCGCTCTTTGCAGAGACATGGATGAAGCTGGAAACTATGC | 0.27 PBM z-score against 500 random probes | -0.03 PBM z-score against 500 random probes |  |  | 
2 | NRC3_wobSeed102_DR4_T18G_o1 (dsDNA) DNA 1: GCCCTAGCAGGCCAATCGGGGTCACTCAAGGCTTGAGCGATTGACAGCGTAGAATGAAGG DNA 2: CCTTCATTCTACGCTGTCAATCGCTCAAGCCTTGAGTGACCCCGATTGGCCTGCTAGGGC | 4.94 PBM z-score against 500 random probes |  | 3.05 PBM z-score against 500 random probes |  | 
3 | NRC3_wobSeed121_DR5_G18T_o1 (dsDNA) DNA 1: GCCAAACTAGGTCACCGTAAGGTCAAAGTCCGCATGGCGATTGACAGCGTAGAATGAAGG DNA 2: CCTTCATTCTACGCTGTCAATCGCCATGCGGACTTTGACCTTACGGTGACCTAGTTTGGC | 5.33 PBM z-score against 500 random probes | 6.59 PBM z-score against 500 random probes |  |  | 
4 | NRC3_wobSeed88_DR3_C13T_o1 (dsDNA) DNA 1: GCTAGCCTAGGTTATGCGGGCCAGTATAGTGTCGGCGCGATTGACAGCGTAGAATGAAGG DNA 2: CCTTCATTCTACGCTGTCAATCGCGCCGACACTATACTGGCCCGCATAACCTAGGCTAGC | 0.05 PBM z-score against 500 random probes | 0.03 PBM z-score against 500 random probes |  |  | 
5 | NRC3_wobSeed25_DR1_T25C_o1 (dsDNA) DNA 1: GCCAAACTAGGTCAAAGGTCAAAGCCGAGCCAACCAGCGATTGACAGCGTAGAATGAAGG DNA 2: CCTTCATTCTACGCTGTCAATCGCTGGTTGGCTCGGCTTTGACCTTTGACCTAGTTTGGC | 5.19 PBM z-score against 500 random probes | 8.1 PBM z-score against 500 random probes |  |  | 
6 | NRC3_wobSeed25_DR1_C26A_o1 (dsDNA) DNA 1: GCCAAACTAGGTCAAAGGTCAAAGTAGAGCCAACCAGCGATTGACAGCGTAGAATGAAGG DNA 2: CCTTCATTCTACGCTGTCAATCGCTGGTTGGCTCTACTTTGACCTTTGACCTAGTTTGGC | 5.12 PBM z-score against 500 random probes |  | 6.19 PBM z-score against 500 random probes |  | 
7 | NRC3_wobSeed18_DR0_C13G_o1 (dsDNA) DNA 1: GCGATACAGGGTGAAGGCCAGAGTACGCGTATTGATGCGATTGACAGCGTAGAATGAAGG DNA 2: CCTTCATTCTACGCTGTCAATCGCATCAATACGCGTACTCTGGCCTTCACCCTGTATCGC | 0.38 PBM z-score against 500 random probes |  |  | 0.44 PBM z-score against 500 random probes | 
8 | NRC3_random_hg19_228_o1 (dsDNA) DNA 1: GCCACCGTGTTAGCCAGGATGGTCTCGATCTCCTGAGCGATTGACAGCGTAGAATGAAGG DNA 2: CCTTCATTCTACGCTGTCAATCGCTCAGGAGATCGAGACCATCCTGGCTAACACGGTGGC | -1.6 PBM z-score against 500 random probes |  |  |  | -0.45 PBM z-score against 500 random probes
9 | NRC3_wobSeed97_DR4_A6C_o1 (dsDNA) DNA 1: GCCAACCTAGGTCACGAAAGGTCAAAGTCGAATGACGCGATTGACAGCGTAGAATGAAGG DNA 2: CCTTCATTCTACGCTGTCAATCGCGTCATTCGACTTTGACCTTTCGTGACCTAGGTTGGC | 5.6 PBM z-score against 500 random probes |  | 6.29 PBM z-score against 500 random probes |  | 
10 | NRC3_random_hg19_423_o1 (dsDNA) DNA 1: GCATCAAGTGATCCTCCCACCTCAGCCTTCCAAGTCGCGATTGACAGCGTAGAATGAAGG DNA 2: CCTTCATTCTACGCTGTCAATCGCGACTTGGAAGGCTGAGGTGGGAGGATCACTTGATGC | 0.07 PBM z-score against 500 random probes |  | 0.02 PBM z-score against 500 random probes |  | 
11 | NRC3_random_hg19_285_o1 (dsDNA) DNA 1: GCTTACTCTGTTGCACTTTGGAAGAAACAAATGTAAGCGATTGACAGCGTAGAATGAAGG DNA 2: CCTTCATTCTACGCTGTCAATCGCTTACATTTGTTTCTTCCAAAGTGCAACAGAGTAAGC | 0.3 PBM z-score against 500 random probes |  | 0.15 PBM z-score against 500 random probes |  | 
12 | NRC3_wobSeed106_DR4_G14A_o1 (dsDNA) DNA 1: GCCTCGAAAGGTCAGTTGAGGTGAGTATACGGATAAGCGATTGACAGCGTAGAATGAAGG DNA 2: CCTTCATTCTACGCTGTCAATCGCTTATCCGTATACTCACCTCAACTGACCTTTCGAGGC | 5.33 PBM z-score against 500 random probes |  | 5.79 PBM z-score against 500 random probes |  | 

Source: paper PMC6555819, “Comprehensive study of nuclear receptor DNA binding provides a revised framework for understanding receptor specificity”
